What was measured:
cytokeratin protein [1] = experiment: cytokeratin immunocytochemistry (CAM5.2-FITC) on fixed TSU-PRI cells; percent of cells stained
cytokeratin protein [2] = experiment: cytokeratin immunocytochemistry (CAM5.2-FITC) on fixed DUMS cells; percent of cells stained
cytokeratin protein [3] = experiment: cytokeratin immunocytochemistry (CAM5.2-FITC) on fixed LNCaP cells; percent of cells stained
cytokeratin protein [4] = experiment: cytokeratin immunocytochemistry (CAM5.2-FITC) on fixed PC-3 cells; percent of cells stained

Measured: Percentage of positive staining

FITC conjugated Anti-Cytokeratin (CAM5.2) monoclonal antibody (Becton-Dickinson, Cat. 347653)
100%: all assays above

Source: patent US20030119077A1
